Test results reported in PMC6680903 (Molecules, 2019).
Values belong to the binder of their own block, whether it stands above or below them.

Tests used:
β2-Microglobulin [1] = target: T1, β2-Microglobulin (Homo sapiens, UniProt P61769); experiment: SPR; Biacore T200; β2M immobilised on a CM5 chip to 150 RU; VHH samples after the modification procedure (NHS-Fluo:VHH 0, 1, 5 or 20; 2 h at 4 °C, ultrafiltration) in 2-fold serial dilution, 30 μL/min, HBS-EP+, 25 °C; 1:1 model with drift and RI2; details: both partners purified
T1 construct: human β2-microglobulin; Amine-coupled to a CM5 chip (150 RU); also called antigen β2M; source: expressed and purified as previously described [27]

β2-Microglobulin (β2M) [2] = target: T2, β2-Microglobulin (β2M) (Homo sapiens, UniProt P61769); experiment: SPR; Biacore T200; β2M immobilized on a CM5 chip to 150 RU; 2-fold serial diluted VHH at 30 μL/min in HBS-EP+; 25 °C; 1:1 binding model; VHH sample 'origin' without modification or other treatment; details: both partners purified
T2 construct: β2-microglobulin, human (the title says anti-human β2-microglobulin VHHs); Probably the mature protein without the signal peptide (surmised); also called antigen β2M; human β2-microglobulin; source: expressed and purified as previously described [27]

β2-Microglobulin (β2M) [3] = target: T2, β2-Microglobulin (β2M); experiment: SPR; Biacore T200; β2M immobilized on a CM5 chip to 150 RU; 2-fold serial diluted VHH at 30 μL/min in HBS-EP+; 25 °C; 1:1 binding model; VHH samples after incubation with NHS-Fluo at molar ratio 0 (negative control), 1, 5 or 20 and ultrafiltration; details: both partners purified
β2-Microglobulin [4] = target: T1, β2-Microglobulin; experiment: SPR; Biacore T200; β2M immobilised on a CM5 chip to 150 RU; VHH samples after the modification procedure (NHS-Fluo:VHH 0, 1, 5 or 20; 2 h at 4 °C, ultrafiltration) in 2-fold serial dilution, 30 μL/min, HBS-EP+, 25 °C; 1:1 model with drift and RI2
β2-Microglobulin [5] = target: T1, β2-Microglobulin; experiment: SPR; Biacore T200; β2M immobilised on a CM5 chip to 150 RU; VHH samples 'Origin' (no treatment) in 2-fold serial dilution, 30 μL/min, HBS-EP+, 25 °C; 1:1 model with drift and RI2; details: both partners purified
β2-Microglobulin [6] = target: T1, β2-Microglobulin; experiment: SPR; Biacore T200; β2M immobilised on a CM5 chip to 150 RU; VHH samples after the modification procedure (NHS-Fluo:VHH 0, 1, 5 or 20; 2 h at 4 °C, ultrafiltration) in 2-fold serial dilution, 30 μL/min, HBS-EP+, 25 °C; 1:1 model with drift and RI2; details: both partners purified; remark: listed apart in the source
β2-Microglobulin [7] = target: T1, β2-Microglobulin; experiment: SPR; Biacore T200; β2M immobilised on a CM5 chip to 150 RU; VHH samples 'Origin' (no treatment) in 2-fold serial dilution, 30 μL/min, HBS-EP+, 25 °C; 1:1 model with drift and RI2; details: both partners purified; remark: listed apart in the source

B1: NB-1 modified with 5 times of NHS-Fluo (VHH)
VHH: QVQLVESGGGLVQAGGSLRLSCAASGSTLDSYYIGWFRQAPGKEREGVSCISSSGNSIRYVDSVKDRFTISRDNGKNTAYLHINSLRPEDTAVYYCAASRRGRKPGLPCSLVRERYAYWGQGTQVTVSS
notes: as the VHH domain of Dm2; flexible (G4S)4 linker between the VHH domain and the His6 tag, written out from '(G4S)4'; A mixture of isomers with different numbers and places of fluorescein; also called NB-1-5; source: E. coli SHuffle T7, purified (HisTrap HP), modified with NHS-Fluo, ultrafiltration
Kd (β2-Microglobulin [1]): 202 nM | koff (β2-Microglobulin [1]): 0.00843 s⁻¹ | kon (β2-Microglobulin [1]): 41800 M⁻¹ s⁻¹

B2: NB-1 (anti-β2M VHH, unmodified), VHH-(G4S)4-His6 (VHH)
VHH: B1 VHH
notes: VHH domain of NB-1; flexible (G4S)4 linker between the VHH domain and the 6xHis-tag, written out from the printed formula; Homology model built on template PDB 4KDT (GMQE 0.99); also called NB-1-origin; NB-1-0; source: E. coli SHuffle T7, purified (HisTrap HP)
Kd (β2-Microglobulin (β2M) [2]): 60 nM | Kd (β2-Microglobulin (β2M) [3]): 138 nM

B3: NB-4 modified with 1 time of NHS-Fluo (VHH)
VHH: QVQLVESGGGLVEPGGSVRLSCAVSGNIVSISTVGWYRQAPGKQRELVASITGGGTTNYGDFVNGRFSIYRDNAPNRVYLHMSTLRPDDTAVYYCNARAGGSGSGSDPYDYWGVGTQVTVSS
Kd (β2-Microglobulin [4]): 26200 nM | koff (β2-Microglobulin [4]): 0.00315 s⁻¹ | kon (β2-Microglobulin [4]): 120 M⁻¹ s⁻¹

B5: NB-4 (VHH)
VHH: B3 VHH
notes: VHH domain of NB-4; flexible (G4S)4 linker between the VHH domain and the His6 tag, written out from '(G4S)4'; VHH-(G4S)4-His6; Template of the homology model: PDB 5IMK (GMQE 0.85). 'Origin' = no treatment; '0' = negative control; also called NB-4-Origin; NB-4-0; source: E. coli SHuffle T7, purified (HisTrap HP)
Kd (β2-Microglobulin [5]): 289 nM | koff (β2-Microglobulin [5]): 0.0028 s⁻¹ | kon (β2-Microglobulin [5]): 9700 M⁻¹ s⁻¹ | Kd (β2-Microglobulin [6]): 536 nM | koff (β2-Microglobulin [6]): 0.003 s⁻¹ | kon (β2-Microglobulin [6]): 5600 M⁻¹ s⁻¹

B7: NB-2 modified by a 20 fold amount of NHS-Fluo (VHH)
VHH: QVQLVESGGGLVQHGGSLRLSCAASGSAFSTYSMTWHRQAPGKGREWVAGVDRSNSDTNYADSVKGRFTIYRDNAQNTVYLRMNSLKPEDTAVYYCSAERLDGSVRREYWGQGTQVTVSS
notes: VHH domain as in m4 (NB-2); flexible (G4S)4 linker between the VHH domain and the 6xHis-tag, written out from the printed formula; Heterogeneous product of random amino modification; also called modified NB-2; NB-2 20:1; source: E. coli SHuffle T7, purified (HisTrap HP), then modified with NHS-Fluo (2 h, 4 °C), ultrafiltration
Kd (β2-Microglobulin (β2M) [3]): 42300 nM

B8: NB-2 modified with 1 time of NHS-Fluo (VHH)
VHH: B7 VHH
notes: as the VHH domain of Dm6; flexible (G4S)4 linker between the VHH domain and the His6 tag, written out from '(G4S)4'; A mixture of isomers with different numbers and places of fluorescein; also called NB-2-1; source: E. coli SHuffle T7, purified (HisTrap HP), modified with NHS-Fluo, ultrafiltration
Kd (β2-Microglobulin [1]): 2530 nM | koff (β2-Microglobulin [1]): 0.00403 s⁻¹ | kon (β2-Microglobulin [1]): 1600 M⁻¹ s⁻¹

B11: NB-2 modified with 5 times of NHS-Fluo (VHH)
VHH: B7 VHH
notes: as the VHH domain of Dm6; flexible (G4S)4 linker between the VHH domain and the His6 tag, written out from '(G4S)4'; A mixture of isomers with different numbers and places of fluorescein; also called NB-2-5; source: E. coli SHuffle T7, purified (HisTrap HP), modified with NHS-Fluo, ultrafiltration
Kd (β2-Microglobulin [1]): 9370 nM | koff (β2-Microglobulin [1]): 0.00554 s⁻¹ | kon (β2-Microglobulin [1]): 591 M⁻¹ s⁻¹

The next lines start with the values.

fold increase of KD against the sample without any treatment (β2-Microglobulin (β2M) [3]): ~2 fold
B4: NB-4 (anti-β2M VHH, unmodified), VHH-(G4S)4-His6 (VHH)
VHH: B3 VHH
notes: VHH domain of NB-4; flexible (G4S)4 linker between the VHH domain and the 6xHis-tag, written out from the printed formula; Homology model built on template PDB 5IMK (GMQE 0.85), a template only; also called NB-4-origin; NB-4-0; source: E. coli SHuffle T7, purified (HisTrap HP)

koff (β2-Microglobulin [1]): 0.00257 s⁻¹ | kon (β2-Microglobulin [1]): 3540 M⁻¹ s⁻¹ | Kd (β2-Microglobulin [7]): 356 nM | koff (β2-Microglobulin [7]): 0.00218 s⁻¹ | kon (β2-Microglobulin [7]): 6120 M⁻¹ s⁻¹
B6: NB-2 (VHH)
VHH: B7 VHH
notes: VHH domain of NB-2; flexible (G4S)4 linker between the VHH domain and the His6 tag, written out from '(G4S)4'; VHH-(G4S)4-His6; Template of the homology model: PDB 5IML (GMQE 0.92). 'Origin' = no treatment; '0' = negative control; also called NB-2-Origin; NB-2-0; source: E. coli SHuffle T7, purified (HisTrap HP)

Kd (β2-Microglobulin (β2M) [3]): 726 nM | fold increase of KD against the sample without any treatment (β2-Microglobulin (β2M) [3]): ~2 fold
B9: NB-2 (anti-β2M VHH, unmodified), VHH-(G4S)4-His6 (VHH)
VHH: B7 VHH
notes: VHH domain of NB-2; flexible (G4S)4 linker between the VHH domain and the 6xHis-tag, written out from the printed formula; Homology model built on template PDB 5IML (GMQE 0.92), a template only; also called NB-2-origin; NB-2-0; source: E. coli SHuffle T7, purified (HisTrap HP)

koff (β2-Microglobulin [1]): 0.00328 s⁻¹ | kon (β2-Microglobulin [1]): 77.4 M⁻¹ s⁻¹
B10: NB-2 modified with 20 times of NHS-Fluo (VHH)
VHH: B7 VHH
notes: as the VHH domain of Dm6; flexible (G4S)4 linker between the VHH domain and the His6 tag, written out from '(G4S)4'; A mixture of isomers with different numbers and places of fluorescein; also called NB-2-20; source: E. coli SHuffle T7, purified (HisTrap HP), modified with NHS-Fluo, ultrafiltration
